Experimental data published in doi:10.1101/2023.08.10.552762.

What was measured:
[1] = target: Escherichia coli SduA (Shedu system, E. coli KTE10) (Escherichia coli KTE10); assay: SEC-MALS
EcSduA (Shedu SduA) [2] = target: T1, EcSduA (Shedu SduA) (Escherichia coli, UniProt PDB:8PS5_1 1-411); assay: cryo-EM structure
T1 sequence: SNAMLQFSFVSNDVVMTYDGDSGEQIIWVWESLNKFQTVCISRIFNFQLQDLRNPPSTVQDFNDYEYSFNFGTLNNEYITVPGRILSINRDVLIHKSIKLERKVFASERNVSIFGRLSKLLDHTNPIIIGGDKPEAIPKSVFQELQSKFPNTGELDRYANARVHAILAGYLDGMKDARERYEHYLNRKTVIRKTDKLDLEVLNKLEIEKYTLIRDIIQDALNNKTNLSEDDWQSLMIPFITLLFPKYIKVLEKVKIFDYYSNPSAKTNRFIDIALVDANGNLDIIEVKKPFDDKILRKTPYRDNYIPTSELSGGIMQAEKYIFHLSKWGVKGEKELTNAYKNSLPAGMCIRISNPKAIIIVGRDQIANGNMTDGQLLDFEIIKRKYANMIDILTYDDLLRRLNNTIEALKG

EcSduA (Shedu SduA) [3] = target: T1, EcSduA (Shedu SduA); assay: fluorescence polarization

Escherichia coli SduA (Shedu system, E. coli KTE10) (enzyme)
stoichiometry N [1]: 4

B1: 40 bp palindromic dsDNA oLL314 (dsDNA)
DNA 1: CTAGTGCATCTGAATCGTCATGACGATTCAGATGCACTAG
DNA 2: CTAGTGCATCTGAATCGTCATGACGATTCAGATGCACTAG
binding result (EcSduA (Shedu SduA) [2]): binds

B2: 40 bp dsDNA oLL321/oLL322 (dsDNA)
DNA 1: GATACCAGCTCTATGTTGACCTCTCAGATCGGCACTACTT
DNA 2: AAGTAGTGCCGATCTGAGAGGTCAACATAGAGCTGGTATC
Kd (EcSduA (Shedu SduA) [3]): 11.9 ± 0.4 nM
